According to patent publication US7449316B2, “UDP-galactose: β-D-galactose-R 4-α-D-galactosyltransferase, α4Gal-T1” (Glycozym APS, priority 2000, dated 2008):
Positions count from the first letter of the chain named.

T1: α4Gal-T1 (Homo sapiens, UniProt Q9NPC4)
T1 construct: The full coding constructs were assayed with 1% Triton X-100 homogenates of cells; made in house; host or cells: insect cells (High Five), baculovirus vector pVL1393
T1 sequence (Q9NPC4 1-353): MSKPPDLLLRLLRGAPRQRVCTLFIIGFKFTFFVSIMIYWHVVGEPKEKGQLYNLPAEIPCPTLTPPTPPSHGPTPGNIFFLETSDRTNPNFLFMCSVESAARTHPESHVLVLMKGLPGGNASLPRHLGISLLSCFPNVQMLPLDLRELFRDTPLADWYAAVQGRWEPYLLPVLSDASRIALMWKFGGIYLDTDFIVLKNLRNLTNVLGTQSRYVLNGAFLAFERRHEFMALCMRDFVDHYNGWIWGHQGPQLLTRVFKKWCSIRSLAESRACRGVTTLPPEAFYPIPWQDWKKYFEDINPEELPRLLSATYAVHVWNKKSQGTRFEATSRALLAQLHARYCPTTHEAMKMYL

B1: α4Gal-T1^37V: full coding human α4Gal-T1 variant, construct #45 (G109, T548, G903, A987), Val at residue 37 (protein, UniProt Q9NPC4 1-353, looked up)
chain: T1 sequence (Q9NPC4 1-353)
modifications: full-length
B2: α4Gal-T1^183K: full coding α4Gal-T1 from p individuals, construct p#5 (A109, A548, G903, G987), Met183 to Lys (protein, UniProt Q9NPC4 1-353, looked up, variant M183K)
chain: T1 sequence (Q9NPC4 1-353) with M183K
modifications: full-length
notes: full coding α4Gal-T1 from p individuals, construct p#5 (A109, A548, G903, G987), Met183 to Lys

Legend:
α4Gal-T1 = target: T1, α4Gal-T1; experiment: Saccharide acceptor substrates tested with α4Gal-T1; format: biochemical; conditions: saccharide acceptors, α4Gal-T1 expressed in insect cells
Method: (§1) Full coding constructs were prepared by genomic PCR using primer pair HCRS131 (5′-[…]) (SEQ ID NO:7) and HCRS125 (5′-[…]) (SEQ ID NO:8) and genomic DNA from phenotyped individuals with phenotypes P1+ (#165) and p (#4) (see Table II for sequence). Three different full coding constructs were selected for expression: #67 (A109, T548, G903, G987), #45 (G109, T548, G903, A987), and p#5 (A109, A548, G903, G987). The products were cloned into BamHI and EcoRI sites of pBluescript KS+, and subsequently into the insect cell expression vector pVL1393 (Pharmingen), and sequenced in full. A truncated, secreted construct (amino acid residues 46-353) was prepared using primer pair HCRS124 (5′-[…]) (SEQ ID NO:9) and HCRS125 from a P1+ phenotype individual (#165), and the sequence confirmed as described above. The products were cloned into the expression vector pAcGP67A (Pharmingen). The variants of plasmids pVL-α4Gal-T1-full and pAcGP67-α4Gal-T1-sol were co-transfected with Baculo-Gold™ DNA (Pharmingen), and virus amplified as described previously (Bennett et al., 1996). Standard assays were performed in 50 μl reaction mixtures containing 25 mM Cacodylate (pH 6.5), 10 mM MnCl2, 0.25% Triton X-100, 100 μM UDP-[^14C]Gal (10,000 cpm/nmol) (Amersham), and the indicated concentrations of acceptor substrates (Sigma and Dextra Laboratories Ltd) (see Table I for structures). The full coding constructs were assayed with 1% Triton X-100 homogenates of cells twice washed in phosphate buffered saline or resuspended microsomal fractions.

[1] = P^k assay: galactosyltransferase activity with CDH, α4Gal-T1 constructs expressed in insect cells; format: biochemical; conditions: full coding constructs in insect (High Five) cells, microsomal fractions, 25 μg CDH, UDP-[14C]Gal, 4 hr, compared to uninfected cells or control construct
Method: (§2) FIG. 4 illustrates expression of full coding Expression of full coding α4Gal-T1 variants in High Five cells. Assays were performed with microsomal fractions, and controls included constructs encoding polypeptide GalNAc-T3 and -T4 (Bennett et al., 1998), as well as a β3GlcNAc-T (Amado et al., 1999). Autoradiography of high performance thin-layer chromatography of reaction products (4 hr) purified by SepPack C-18 columns. Panel A: P^k assay using 25 μg CDH as substrate. Plate was run in chloroform-methanol-water (60/35/8 v/v/v). […] Panel B: P1 assay using 20 μg PG as substrate. Plate was run in chloroform-methanol-water (60/40/10 v/v/v). No specific product was formed with UDP-Gal donor substrate, whereas the β3GlcNAc-T transferred GlcNAc into PG with UDP-GlcNAc.
as §1

[2] = P1 assay: α4Gal-T activity with paragloboside (PG) acceptor; format: biochemical; conditions: full coding constructs in insect cells, 20 μg PG, UDP-Gal donor
Method: as §2
Full coding constructs were prepared by genomic PCR using primer pair HCRS131 (5′-[…]) (SEQ ID NO:7) and HCRS125 (5′-[…]) (SEQ ID NO:8) and genomic DNA from phenotyped individuals with phenotypes P1+ (#165) and p (#4) (see Table II for sequence). Three different full coding constructs were selected for expression: #67 (A109, T548, G903, G987), #45 (G109, T548, G903, A987), and p#5 (A109, A548, G903, G987). The products were cloned into BamHI and EcoRI sites of pBluescript KS+, and subsequently into the insect cell expression vector pVL1393 (Pharmingen), and sequenced in full. […]

Namalwa cells = experiment: Cell surface P^k/CD77 antigen expression after transient transfection, FACS analysis; format: cell-based, human; conditions: transient transfection of Namalwa cells, 48 hours, 1A4 monoclonal antibody
Method: FIG. 7 illustrates cell surface expression of P^k/CD77 antigen in Namalwa cells after transient transfection of α4Gal-T1. Constructs p#5, #45, and #67, as well as empty pDR2 vector were electroporated in Namalwa cells and expression of P^k/CD77 antigen was tested after 48 hours. Cells were labeled with 1A4 monoclonal antibody and GAM-FITC (grey histograms) or with GAM-FITC alone (empty histograms) and analysed with a FACSCalibur flow cytometer.
The three full coding constructs #67, #45, and p#5, were cloned into pDR2 (Clontech, USA). Insert was excised from pBKs with BamHI/XhoI and inserted into the BamHI/SalI sites of pDR2. Transient transfection of 5×10^6 Namalwa cells with 20 μg cDNA was done by double-pulse electroporation using an Easy-cell ject+ (Eurogentec, France). Expression of CD77/P^k antigen was evaluated by FACS analysis on a FACSCalibur (Beckton-Dickinson, USA) using 1A4 monoclonal antibody (Wiels, 1997).

Molecule | acceptor activity over background (α4Gal-T1) | galactosyltransferase (α4Gal-T) activity with CDH [1] | further results
OC[C@H]1O[C@@H](O[C@H]2[C@H](O)[C@@H](O)[C@H](OCc3ccccc3)O[C@@H]2CO)[C@H](O)[C@@H](O)[C@H]1O [benzyl β-lacto-side] | no significant activity over background values |  | 
OC[C@H]1O[C@@H](O[C@H]2[C@H](O)[C@@H](O)C(O)O[C@@H]2CO)[C@H](O)[C@@H](O)[C@H]1O (stereo partly drawn) [lactose] | no significant activity over background values |  | 
N[C@H]1C(O)O[C@H](CO)[C@@H](O[C@@H]2O[C@H](CO)[C@H](O)[C@H](O)[C@H]2O)[C@@H]1O (stereo partly drawn) [lactosamine] | no significant activity over background values |  | 
B1 |  | marked increase in galactosyltransferase activity | galactosyltransferase (α4Gal-T) activity with CDH ([1]; listed as #45): resulted in α4Gal-T activity toward CDH; α4Gal-T activity with neolacto-series (paragloboside) glycolipid acceptor (P1 synthase activity) [2]: neither α4Gal-T1^37M or α4Gal-T1^37V constructs conferred α4Gal-T activity; P^k/CD77 expression (Namalwa cells): clearly resulted in P^k/CD77 expression
B2 |  | no activity | galactosyltransferase (α4Gal-T) activity with CDH ([1]; listed as #5): no activity above background
